Drawing on patent US20170145104A1, this text covers IC50 and EC50 for three substances.

In assay [1] the target is human GITR, membrane bound (on activated human T cells and on 3A9-hGITR cells) (human) (UniProt Q9Y5U5). As to the kind of experiment: FACS competition on activated human CD4+ T cells: GITRL pre-bound and titrated, then 28F3.hIgG1 (m11) at a fixed 0.5 ug/mL, detected with anti-human IgG Fc-PE; partial block; unit from the axis.
The target is the same in assay [2]. As to the kind of experiment: FACS: recombinant hGITR-L trimer titrated on PHA-activated human T cells, CD4 gate, PE anti-HA tag; direct binding curve; the sheet's table heads the row 'IC50', the text calls it EC50; unit from the axis.
Assay [3] shares this target. The assay is described as follows: FACS: recombinant hGITR-L trimer titrated on PHA-activated human T cells, CD8 gate, PE anti-HA tag; direct binding curve; the sheet's table heads the row 'IC50', the text calls it EC50; unit from the axis.
For assay [4] the target is unchanged. As to the kind of experiment: FACS competition on PHA-activated human T cells, GITR-L pre-bound, competitor 28F3-hIgG1 at 0.5 ug/ml; inhibition partial.
The target is the same in assay [5]. As to the kind of experiment: FACS, PHA-activated human CD4+ and CD8+ T cells, PE anti-HA tag.
For assay [6] the target is unchanged. The assay is described as follows: FACS on activated T cells, GMFI (PE); EC50 table under the plot; unit from the axis; fit of a flat control curve, see non_binding.

Sequence of human GITR, membrane bound (on activated human T cells and on 3A9-hGITR cells) (human) (Q9Y5U5 26-241 limits assumed, form in doubt): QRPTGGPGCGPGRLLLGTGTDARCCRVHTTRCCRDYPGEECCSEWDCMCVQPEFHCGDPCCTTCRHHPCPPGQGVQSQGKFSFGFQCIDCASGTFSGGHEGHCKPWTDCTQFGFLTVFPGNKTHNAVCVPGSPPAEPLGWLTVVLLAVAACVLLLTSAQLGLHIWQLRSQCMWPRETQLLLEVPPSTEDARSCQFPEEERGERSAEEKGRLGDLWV

As a reminder, the IC50 is the concentration that inhibits the measured activity by half. Read a high IC50 as weaker potency. The term EC50 denotes the concentration at which the effect is half-maximal. As for “recombinant human GITR ligand trimer (R&D Systems 6987-GL)”, the IC50 in assay [1] is 2.44 ng/mL; in assay [4], 2.4 ng/mL. Moreover, the figures for the EC50 in assay [2], in assay [3] and in assay [5] were 0.016 µg/mL, 0.0163 µg/mL and 0.016 µg/mL, respectively.
unrelated hIgG1 (antibody) showed an EC50 in assay [6] of 132 nM.
Same read-out and setting: the figure for unrelated hIgG2 (antibody) is 6.72 nM.
